{"source": "paper PMC5818494", "about": "(Scientific Reports, 2018)", "proteins": {"B1": {"name": "MBP-JMJD7 fusion protein (with a truncated linker) (enzyme, mouse)", "chain": "MAEAALEAVRRALQEFPAAARDLNVPRVVPYLDEPPSPLCFYRDWVCPNRPCIIRNALQHWPALQKWSLSYLRATVGSTEVSVAVTPDGYADAVRGDRFVMPAERRLPISHVLDVLEGRAQHPGVLYVQKQCSNLPTELPQLLSDIESHVPWASESLGKMPDAVNFWLGDASAVTSLHKDHYENLYCVVSGEKHFLLHPPSDRPFIPYNLYTPATYQLTEEGTFRVVDEEAMEKVPWIPLDPLAPDLTQYPSYSQAQALHCTVRAGEMLYLPALWFHHVQQSHGCIAVNFWYDMEYDLKYSYFQLMDTLTRATGLD", "notes": "JMJD7, mouse; Crystallised as the fusion; MBP (PDB 1HSJ) was a search model for molecular replacement"}, "B2": {"name": "JMJD7 (mouse), JMJD7 protein alone generated from GST-JMJD7 fusion protein (enzyme)", "chain": "B1 chain", "notes": "JMJD7, mouse; The GST-derived, tag-free form is stated for the crystals; also called mJMJD7; GST-free JMJD7"}}, "key": {"[1]": {"target": "the molecule itself", "assay": "crystal structure; MBP-JMJD7 (20 mg/ml), vapor diffusion, 100 mM Citrate Sodium, 20% PEG 3350, 4 °C; in the absence of α-KG; two molecules in one asymmetric unit"}, "[2]": {"target": "the molecule itself", "assay": "crystal structure; mJMJD7 (from GST-mJMJD7, tag removed, 10 mg/ml), vapor diffusion, 0.1 M MES monohydrate pH6.0, 10% PEG4000, 4 °C; in the presence of α-KG; two molecules in one asymmetric unit"}}, "data": [{"protein": "B1", "values": [{"measurement": "stoichiometry N", "setting": "[1]", "result": 2}]}, {"protein": "B2", "values": [{"measurement": "stoichiometry N", "setting": "[2]", "result": 2}]}]}
